Laboratory results published in patent US20210371505A1.

Tests used:
Assay in all cases: cell-based or functional assay
[1] = biological target: Hemagglutinin of influenza virus A/Philippines/01/1982 (H3N2) (Influenza A virus A/Philippines/01/1982 (H3N2))
[2] = biological target: Hemagglutinin of influenza virus A/Shanghai/01/2013-PR8 (H7N9) (Influenza A virus A/Shanghai/01/2013-PR8 (H7N9))
[3] = biological target: Hemagglutinin of influenza virus A/Aichi/02/1968-PR8-X31 (H3N2) (Influenza A virus A/Aichi/02/1968-PR8-X31 (H3N2)) (UniProt P03437)

B1: H1H14612N2 (antibody, V domains shown)
VH: EVQLVESGGGLVKPGGSLRLSCAASGFSFSGFSMNWVRQAPGKGLEWVSSISTSGNYMYYADSVKGRFTISRDNAKKSFSLQMNSLRAEDSAIYYCARGGGYNWNLFDYWGQGSLVTVSS
VL: EIVLTQSPGTLSLSPGERATLSCRASQSLNSNYLAWYQQKPGQAPRLLIYGASSRATGIPDRFSGSGSGADFTLTISRLESEDFAVYYCQQYGNSPLTFGGGTKVEIK
For B1, the IC50 of neutralization, cell viability microneutralization assay on MDCK cells [1] was 37.6 nM, the IC50 of neutralization, cell viability microneutralization assay on MDCK cells [2] was > 6.67 µM and the EC50, complement-dependent cytotoxicity of virus-infected MDCK cells [3] was 126 nM. The IC50 of neutralization, cell viability microneutralization assay on MDCK cells [3] was 5.7 nM and the maximum lysis, complement-dependent cytotoxicity of virus-infected MDCK cells [3] was 86.3%.
